Consider 25 molecules from US20190100594A1 (INHIBRX, published 2019).

Assay [1] concerns the target T1, human GITR-CHO (human, UniProt Q9Y5U5).
T1 construct: expressed on the surface of CHO cells, construct not described; also called human GITR expressed on the surface of CHO cells
T1 sequence (looked up): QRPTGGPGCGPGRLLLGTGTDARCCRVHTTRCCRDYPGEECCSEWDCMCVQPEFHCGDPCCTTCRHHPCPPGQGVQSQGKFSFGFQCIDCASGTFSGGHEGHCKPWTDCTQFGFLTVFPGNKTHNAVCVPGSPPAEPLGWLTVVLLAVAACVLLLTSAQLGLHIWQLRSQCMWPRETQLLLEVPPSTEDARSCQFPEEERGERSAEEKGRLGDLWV
Nature of the assay: flow cytometry on human GITR-CHO cells.

The target in assay [2] is T2, cyno GITR-CHO (cynomolgus monkey).
T2 construct: expressed on the surface of CHO cells, construct not described; also called cynomolgus GITR expressed on the surface of CHO cells
Nature of the assay: flow cytometry on cyno GITR-CHO cells. Background: In flow cytometry, cells or beads pass a laser one at a time.

Assay [3] deals with T1, human GITR-CHO. Nature of the assay: flow cytometry on human GITR-CHO cells. This is another data set of the same source.
The target of assay [4] is T1, human GITR-CHO. Nature of the assay: flow cytometry on human GITR-CHO cells. This is another data set of the same source.
For assay [5], the target named is T3, GITR expressed on CHO cells (Homo sapiens (Human), UniProt Q9Y5U5 26-241).
T3 construct: also called glucocorticoid-induced TNFR-related protein; TNFRSF18
T3 sequence: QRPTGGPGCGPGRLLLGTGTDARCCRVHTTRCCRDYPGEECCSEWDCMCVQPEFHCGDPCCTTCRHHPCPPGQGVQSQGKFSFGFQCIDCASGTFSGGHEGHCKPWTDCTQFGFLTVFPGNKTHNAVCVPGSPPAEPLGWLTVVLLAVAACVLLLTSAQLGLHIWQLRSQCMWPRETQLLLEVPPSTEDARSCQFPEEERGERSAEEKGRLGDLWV
Nature of the assay: flow cytometry competition on GITR-expressing CHO cells; blocked ligand recombinant GITRL; readout GITRL bound, MFI-FL1. The text has this:
Briefly, in these studies, a flow cytometry assay using GITR expressing CHO cells and recombinant GITRL was used to implement to assess blocking capacity. The GITR antibody, TRX-518, was used as a control for these studies.

The target of assay [6] is T3, GITR expressed on CHO cells. Nature of the assay: flow cytometry on GITR-expressing CHO cells, MFI-FL4.
For assay [7], the target named is T2, cyno GITR-CHO. Nature of the assay: flow cytometry on cyno GITR-CHO cells. This is another data set of the same source.
The target of assay [8] is T1, human GITR-CHO. Nature of the assay: flow cytometry on human GITR-CHO cells. The source holds these as a separate data set.

Broadly, the EC50 (read off the curve) is the concentration giving half of the maximal effect.

Like-named read-outs stand apart in the source and are kept apart here.

B1: hzC06v3 (VHH)
VHH: EVQLLESGGGEVQPGGSLRLSCAASGSVFSIDAMGWYRQAPGKQRELVAVLSGISSAKYAESVKGRFTISRDNAKNTLYLQMSSLRAEDTAVYYCYADVSTGWGRDAHGYWGQGTLVTV
Take B1: the “EC50 (read off the curve)” value in the assay with human GITR-CHO [1] is 1 to 2 nM.

B2: hzC06v1.2 (VHH)
VHH: EVQLLESGGGEVQPGGSLRLSCAASGSVFSIDAMGWYRQAPGKGRELVSALSGISSATYAESVKGRFTISRDNAKNTLYLQMSSLRAEDTAVYYCYADVSTGWGRDAHGYWGQGTLVTV
On to B2, for which the “EC50 (read off the curve)” value was roughly 4 nM with cyno GITR-CHO [2] and 1 to 2 nM with human GITR-CHO [1].

B3: hzC06v2.1 (VHH)
VHH: EVQLLESGGGEVQPGGSLRLSCAASGSVFSIDAMGWYRQAPGKGLELVAVLSGISSATYAESVKGRFTISRDNAKNTLYLQMSSLRAEDTAVYYCYADVSTGWGRDAHGYWGQGTLVTV
With B3, the “EC50 (read off the curve)” value in the assay with human GITR-CHO [1] was 1 to 2 nM.

B4: hzC06v1.4 (VHH)
VHH: EVQLLESGGGEVQPGGSLRLSCAASGSVFSIDAMGWYRQAPGQQRELVSALSGISSATYAESVKGRFTISRDNAKNTLYLQMSSLRAEDTAVYYCYADVSTGWGRDAHGYWGQGTLVTV
On to B4, for which the results for the “EC50 (read off the curve)” value in the assay with cyno GITR-CHO [2] and in the assay with human GITR-CHO [1] were roughly 4 nM and 1 to 2 nM, respectively.

B5: hzC06v2.3 (VHH)
VHH: EVQLLESGGGEVQPGGSLRLSCAASGSVFSIDAMGWYRQAPGKQRELVAVLSGISSATYAESVKGRFTISRDNAKNTLYLQMSSLRAEDTAVYYCYADVSTGWGRDAHGYWGQGTLVTV
Regarding B5, the entries for the “EC50 (read off the curve)” value with cyno GITR-CHO [2] and with human GITR-CHO [1] were roughly 4 nM and 1 to 2 nM, respectively.

B6: hzC06v2.2 (VHH)
VHH: EVQLLESGGGEVQPGGSLRLSCAASGSVFSIDAMGWYRQAPGKGRELVAVLSGISSATYAESVKGRFTISRDNAKNTLYLQMSSLRAEDTAVYYCYADVSTGWGRDAHGYWGQGTLVTV
For B6, the “EC50 (read off the curve)” value with cyno GITR-CHO [2] is roughly 4 nM; in the assay with human GITR-CHO [1], 1 to 2 nM.

B7: hzC06v3.1 (VHH)
VHH: EVQLLESGGGEVQPGGSLRLSCAASGSVFSIDAMGWYRLAPGQQRELVAVLSGISSAKYAESVKGRFTISRDNAKNTLYLQMSSLRAEDTAVYYCYADVSTGWGRDAHGYWGQGTLVTV
With B7, in the assay with human GITR-CHO [3], the “EC50 (read off the curve)” value is roughly 4 nM.

B8: hzC06v3.2 (VHH)
VHH: EVQLLESGGGEVQPGGSLRLSCAASGSVFSIDAMGWYRQAPGKQRELVAVLSGISSAKYADSVKGRFTISGDNAKNTLYLQMSSLRAEDTAVYYCYADVSTGWGRDAHGYWGQGTLVTV
B8: in the assay with human GITR-CHO [3], the “EC50 (read off the curve)” value was roughly 4 nM.

B9: hzC06v2.4 (VHH)
VHH: EVQLLESGGGEVQPGGSLRLSCAASGSVFSIDAMGWYRQAPGQQRELVAVLSGISSATYAESVKGRFTISRDNAKNTLYLQMSSLRAEDTAVYYCYADVSTGWGRDAHGYWGQGTLVTV
Turning to B9, the “EC50 (read off the curve)” value with cyno GITR-CHO [2] was roughly 4 nM; with human GITR-CHO [1], 1 to 2 nM.

B10: hzC06v1.1 (VHH)
VHH: EVQLLESGGGEVQPGGSLRLSCAASGSVFSIDAMGWYRQAPGKGLELVSALSGISSATYAESVKGRFTISRDNAKNTLYLQMSSLRAEDTAVYYCYADVSTGWGRDAHGYWGQGTLVTV
Consider B10, for which the “EC50 (read off the curve)” value in the assay with cyno GITR-CHO [2] is roughly 8 nM; in the assay with human GITR-CHO [1] it was 1 to 2 nM.

B11: hzC06v3.11 (VHH)
VHH: EVQLLESGGGEVQPGGSLRLSCAASGSVFSIDAMGWYRQAPGKQRELVAVLSGISSAKYADAVEGRFTISRASAPNTVYLQMSSLRAEDTAVYYCYADVSTGWGRDAHGYWGQGTLVTV
B11: the “EC50 (read off the curve)” value with human GITR-CHO [4] fell in the range of 1 to 2 nM.

B12: hzC06v3.8 (VHH)
VHH: EVQLLESGGGEVQPGGSLRLSCAASGSVFSIDAMGWYRQAPGKQRELVAVLSGISSAKYAASAPGRFTISRDAVENTVYLQMSSLRAEDTAVYYCYADVSTGWGRDAHGYWGQGTLVTV
Regarding B12, in the assay with human GITR-CHO [4], the “EC50 (read off the curve)” value is 1 to 2 nM.

B13: hzC06v3.5 (VHH)
VHH: EVQLLESGGGEVQPGGSLRLSCAASGSVFSIDAMGWYRQAPGKQRELVAVLSGISSAKYAESVKGRFTISRASAPNTLYLQMSSLRAEDTAVYYCYADVSTGWGRDAHGYWGQGTLVTV
For the molecule B13, in the assay with human GITR-CHO [3], the “EC50 (read off the curve)” value was roughly 4 nM.

B14: hzC06v1.3 (VHH)
VHH: EVQLLESGGGEVQPGGSLRLSCAASGSVFSIDAMGWYRQAPGKQRELVSALSGISSATYAESVKGRFTISRDNAKNTLYLQMSSLRAEDTAVYYCYADVSTGWGRDAHGYWGQGTLVTV
B14: the “EC50 (read off the curve)” value is roughly 4 nM in the assay with cyno GITR-CHO [2] and 1 to 2 nM with human GITR-CHO [1].

B15: H11 (VHH, not shown: a dimerising Fc or GST)
VHH: QVQLVQSGGGLVQPGGSLRLSCAASGSVFSIDSMSWFRQAPGNERELVALITGGRTTTYADSVKGRFTISRASAPNTVHLQMNSLKPEDTAVYYCNAVVSTGWGRNADDYWGQGTQVTVS
Take B15: the “IC50 (read off the curve)” value in assay [5] lay in the range of 2 to 3 nM. The “EC50 (read off the curve)” value in assay [6] was in the range of 2 to 3 nM.

B16: B7 (VHH, not shown: a dimerising Fc or GST)
VHH: QVQLQESGGGLVQPGGSLRLSCAASGSVFSIDSMSWFRQTPGNERELVAHITGGRTTTYADSVKGRFTISRASAPNTVHLQMNNLKPEDTAVYYCNAAVSTGWGRNADDYWGQGTQVTVS
In the case of B16, in assay [5], the “IC50 (read off the curve)” value was roughly 3 nM. The “EC50 (read off the curve)” value in assay [6] was roughly 3 nM.

B17: B5 (VHH, not shown: a dimerising Fc or GST)
VHH: QVQLVQSGGGLVQPGESLRLSCAASGSVFSIDSMSWFRQGPGNERELVALITGGRTTTYADSVKGRFTISRANAPNTVHLQMNSLEPEDTAVYYCNAAVSTGWGRNADDYWGQGTQVTVS
Consider B17, for which the “IC50 (read off the curve)” value in assay [5] lay in the range of 2 to 3 nM. Besides, the “EC50 (read off the curve)” value in assay [6] lay within 2 to 3 nM.

B18: hzCC04v5.5 (VHH)
VHH: EVQLLESGGGEVQPGGSLRLSCAASGFTFSTHGMDWFRQAPGKDLEWVSAIQSGGSWTSYASSVKGRFTISRDNAKNTLYLQMQQLRAEDTAVYWCQNRVTRGQGTLVTV
notes: sheet prints hzCC04, text hzC04; also called hzC04v5.5
With B18, the “EC50 (read off the curve)” value with cyno GITR-CHO [7] was 1 to 2 nM; in the assay with human GITR-CHO [8], roughly 2 nM.

B19: hzCC04v5.11 (VHH)
VHH: EVQLLESGGGEVQPGGSLRLSCAASGFTFSTHGMDWFRQAPGKDLEWVSAIQSGGSWTSYASSVKGRFTISRDNAKNTLYLQMNQLRAEDTAVYWCQNRVTRGQGTLVTV
notes: sheet prints hzCC04, text hzC04; also called hzC04v5.11
B19: the “EC50 (read off the curve)” value was 1 to 2 nM with cyno GITR-CHO [7] and roughly 2 nM with human GITR-CHO [8].

B20: hzCC04v5.9 (VHH)
VHH: EVQLLESGGGEVQPGGSLRLSCAASGFTFSTHGMDWFRQAPGKDLEWVSAIQSGGSWTSYASSVKGRFTISRDNAKNTLYLQMDDLRAEDTAVYWCQNRVTRGQGTLVTV
notes: sheet prints hzCC04, text hzC04; also called hzC04v5.9
As to B20, the “EC50 (read off the curve)” value in the assay with cyno GITR-CHO [7] is 1 to 2 nM; with human GITR-CHO [8] it was roughly 2 nM.

B21: hzCC04v5.12 (VHH)
VHH: EVQLLESGGGEVQPGGSLRLSCAASGFTFSTHGMDWFRQAPGKDLEWVSAIQSGGSWTSYASSVKGRFTISRDNAKNTLYLQMSNLRAEDTAVYWCQNRVTRGQGTLVTV
notes: sheet prints hzCC04, text hzC04; also called hzC04v5.12
B21: the “EC50 (read off the curve)” value was 1 to 2 nM with cyno GITR-CHO [7] and roughly 2 nM with human GITR-CHO [8].

B22: hzCC04v5.8 (VHH)
VHH: EVQLLESGGGEVQPGGSLRLSCAASGFTFSTHGMDWFRQAPGKDLEWVSAIQSGGSWTSYASSVKGRFTISRDNAKNTLYLQMNDLRAEDTAVYWCQNRVTRGQGTLVTV
notes: sheet prints hzCC04, text hzC04; also called hzC04v5.8
As to B22, the “EC50 (read off the curve)” value is 1 to 2 nM in the assay with cyno GITR-CHO [7] and roughly 2 nM in the assay with human GITR-CHO [8].

B23: hzCC04v5.10 (VHH)
VHH: EVQLLESGGGEVQPGGSLRLSCAASGFTFSTHGMDWFRQAPGKDLEWVSAIQSGGSWTSYASSVKGRFTISRDNAKNTLYLQMQDLRAEDTAVYWCQNRVTRGQGTLVTV
notes: sheet prints hzCC04, text hzC04; also called hzC04v5.10
In the case of B23, the “EC50 (read off the curve)” value is 1 to 2 nM with cyno GITR-CHO [7] and roughly 2 nM with human GITR-CHO [8].

B24: hzCC04v5.6 (VHH)
VHH: EVQLLESGGGEVQPGGSLRLSCAASGFTFSTHGMDWFRQAPGKDLEWVSAIQSGGSWTSYASSVKGRFTISRDNAKNTLYLQMQNLRAEDTAVYWCQNRVTRGQGTLVTV
notes: sheet prints hzCC04, text hzC04; also called hzC04v5.6
Consider B24, for which the “EC50 (read off the curve)” value with cyno GITR-CHO [7] is 1 to 2 nM; in the assay with human GITR-CHO [8], roughly 2 nM.

B25: hzCC04v5.7 (VHH)
VHH: EVQLLESGGGEVQPGGSLRLSCAASGFTFSTHGMDWFRQAPGKDLEWVSAIQSGGSWTSYASSVKGRFTISRDNAKNTLYLQMDNLRAEDTAVYWCQNRVTRGQGTLVTV
notes: sheet prints hzCC04, text hzC04; also called hzC04v5.7
On to B25, for which the “EC50 (read off the curve)” value was 1 to 2 nM in the assay with cyno GITR-CHO [7] and roughly 2 nM with human GITR-CHO [8].
